Values joined by “and” are separate entries in the source; they are usually repeats but may differ in a detail not shown here. Equal entries are not always repeated.

The values below come from article PMC5647421, “Hetero-oligomer of dynamin-related proteins participates in the fission of highly divergent mitochondria from Entamoeba histolytica” (Scientific Reports, 2017).

The experiment addresses T1, EhDrpA (endogenous) (Entamoeba histolytica (endogenous in …, UniProt C4LX84 1-682)).
T1 construct: Entamoeba histolytica dynamin-related protein A (EhDrpA, earlier named EhDlp1), XP_649650; also called endogenous EhDrpA; native EhDrpA; source: endogenous, E. histolytica trophozoite whole cell lysate
T1 sequence (looked up): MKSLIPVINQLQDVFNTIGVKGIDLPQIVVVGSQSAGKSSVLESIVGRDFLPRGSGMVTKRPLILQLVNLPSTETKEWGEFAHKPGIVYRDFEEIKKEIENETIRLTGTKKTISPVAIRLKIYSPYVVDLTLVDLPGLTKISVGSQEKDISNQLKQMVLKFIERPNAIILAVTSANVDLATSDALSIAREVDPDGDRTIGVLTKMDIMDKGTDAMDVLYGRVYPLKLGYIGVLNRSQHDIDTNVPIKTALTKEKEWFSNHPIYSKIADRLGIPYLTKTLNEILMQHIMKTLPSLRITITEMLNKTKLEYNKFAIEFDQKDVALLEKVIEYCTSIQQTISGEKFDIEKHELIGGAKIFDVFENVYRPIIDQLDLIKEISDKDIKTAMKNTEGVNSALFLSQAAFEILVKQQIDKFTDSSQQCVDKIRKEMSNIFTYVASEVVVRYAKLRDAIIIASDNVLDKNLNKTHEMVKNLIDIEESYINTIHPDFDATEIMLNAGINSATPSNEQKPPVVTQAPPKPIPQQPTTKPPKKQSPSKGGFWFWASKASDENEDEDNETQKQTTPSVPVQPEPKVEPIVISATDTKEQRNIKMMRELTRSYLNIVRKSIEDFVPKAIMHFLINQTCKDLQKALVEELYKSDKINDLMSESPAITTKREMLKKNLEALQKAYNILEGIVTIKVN
The experiment in a line: co-IP; trophozoites of E. histolytica HM-1:IMSS cl6 wild type; immunoprecipitation by anti-DrpA or anti-DrpB antibodies; quantitative immunoblot with recombinant His6-EhDRP-HA proteins as standards. Particulars: partners not purified. A general note: Immunoblotting shows a protein as a band on a membrane.

B1: EhDrpB (endogenous) (natural protein, UniProt C4M3R5 1-663, looked up)
chain: MQRLIPVINSLQDVFTAAGLPNTLPLPQIVVVGSQSSGKSSVLEHVVGKDFLPRGSGIVTRRPLIVQCVRSNVAEDYGQFEHTGDRKFTDFGEIRNEITRETERTCPGRNVSSVPIRLRIYSSSVVDLTLVDLPGLVKVNINGQTAEMVKNLRDMVYEYASPSNALILAVTAGNIDIANSDALQVAKDVDPDGERTIGVLTKLDLEDKGTNSMDVLMGRVYPLKLGYIGVVNRSQQDINNGVDVKTSLRHEKEFFENHPVYCSIAERMGTEYMVNRLNVLLLQHIQKCLPGLKQQINQCYEKARSRYEDIKPDDENLLSLSLQQIMKFSGSFAAALNGTDTNIHTHEISGGAKIFSVFENNFRPTIDSQDILSGIKDVDILTAIKNASGTRPCLYVPQSAFENLISKQVRNFEGTCHNCVDNVYREMKVIVGKIAKDNIEKYDRFREALIQASTEVMNDYMTQTHKMVQDLIDIEADYINTSHPDFDTTKVLKEADEAMKTPQDGIDTIVTIDPNNTTNAQQYEAKKPVKSSFFAGQINKNQAKPQQQHVPKESITTSIRVDHTNQREMREINLIRNLCKDYLLIVRKSIKDLVPKAVIHFLVFKTRDSLQKELIKKLYNEALLQDLLAENPAIVNERKVVKQNLEALKKALDIINQVRDQCF
notes: Entamoeba histolytica dynamin-related protein B (EhDrpB), XP_651634; also called endogenous EhDrpB; native EhDrpB; source: endogenous, E. histolytica trophozoite whole cell lysate
For the molecule B1, the “stoichiometry N” value is 2 EhDrpB per EhDrpA and 3 EhDrpB per EhDrpA.

Broadly, the stoichiometry N is a count of units in the complex or per binding partner.
